{"source": "paper PMC10663500", "key": {"[1]": {"molecular_target": "T1, mouse programmed cell death protein 1 C60S (aa 25-167) Fc fusion protein, Q02242", "T1 chain": "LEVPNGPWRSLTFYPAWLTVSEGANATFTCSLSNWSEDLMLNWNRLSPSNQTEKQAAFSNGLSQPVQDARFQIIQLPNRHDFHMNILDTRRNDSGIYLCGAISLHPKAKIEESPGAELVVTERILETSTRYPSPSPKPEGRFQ", "test": "BreviA (SPR)", "details": "chain shown with the change;, read off a plot; for Kd: parent: est. 1.2e-7 M"}, "[2]": {"molecular_target": "T2, human programmed cell death protein 1 C93S (aa 24-167), Q15116", "T2 sequence (Q15116 24-167 C93S)": "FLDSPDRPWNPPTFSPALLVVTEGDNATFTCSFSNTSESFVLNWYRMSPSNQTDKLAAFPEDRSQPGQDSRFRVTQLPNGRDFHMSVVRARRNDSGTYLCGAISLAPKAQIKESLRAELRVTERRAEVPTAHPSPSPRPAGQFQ", "test": "SPR", "details": "chain shown with the change; top curve (taken as 1024 nM hPD-1), read at end of association, about 570 s; antibody immobilized as ligand; parent: est. 740; read off a plot"}, "[3]": {"molecular_target": "T2, human programmed cell death protein 1 …", "test": "BreviA (SPR)", "details": "chain shown with the change;; parent: est. 910 pM; read off a plot"}}}
{"binder": "toripalimab Fab (wild-type) L:L101A (protein) chain 1: QGQLVQSGAEVKKPGASVKVSCKASGYTFTDYEMHWVRQAPIHGLEWIGVIESETGGTAYNQKFKGRVTITADKSTSTAYMELSSLRSEDTAVYYCAREGITTVATTYYWYFDVWGQGTTVTVSS chain 2: DVVMTQSPLSLPVTLGQPASISCRSSQSIVHSNGNTYLEWYLQKPGQSPQLLIYKVSNRFSGVPDRFSGSGSGTDFTLKISRVEAEDVGVYYCFQGSHVPATFGQGTKLEIK", "values": [{"measurement": "Kd", "setting": "[1]", "value": 26, "unit": "nM"}]}
{"binder": "toripalimab Fab (wild-type) L:P100H (protein) chain 1: QGQLVQSGAEVKKPGASVKVSCKASGYTFTDYEMHWVRQAPIHGLEWIGVIESETGGTAYNQKFKGRVTITADKSTSTAYMELSSLRSEDTAVYYCAREGITTVATTYYWYFDVWGQGTTVTVSS chain 2: DVVMTQSPLSLPVTLGQPASISCRSSQSIVHSNGNTYLEWYLQKPGQSPQLLIYKVSNRFSGVPDRFSGSGSGTDFTLKISRVEAEDVGVYYCFQGSHVHLTFGQGTKLEIK", "values": [{"measurement": "response", "setting": "[2]", "value": 470, "unit": "RU"}, {"measurement": "Kd", "setting": "[1]", "value": 1, "unit": "nM"}]}
{"binder": "toripalimab Fab (wild-type) L:V99G (protein) chain 1: QGQLVQSGAEVKKPGASVKVSCKASGYTFTDYEMHWVRQAPIHGLEWIGVIESETGGTAYNQKFKGRVTITADKSTSTAYMELSSLRSEDTAVYYCAREGITTVATTYYWYFDVWGQGTTVTVSS chain 2: DVVMTQSPLSLPVTLGQPASISCRSSQSIVHSNGNTYLEWYLQKPGQSPQLLIYKVSNRFSGVPDRFSGSGSGTDFTLKISRVEAEDVGVYYCFQGSHGPLTFGQGTKLEIK", "values": [{"measurement": "response", "setting": "[2]", "value": 770, "unit": "RU"}, {"measurement": "Kd", "setting": "[3]", "value": 2, "unit": "nM"}]}
{"binder": "toripalimab Fab (wild-type) L:V99A (protein) chain 1: QGQLVQSGAEVKKPGASVKVSCKASGYTFTDYEMHWVRQAPIHGLEWIGVIESETGGTAYNQKFKGRVTITADKSTSTAYMELSSLRSEDTAVYYCAREGITTVATTYYWYFDVWGQGTTVTVSS chain 2: DVVMTQSPLSLPVTLGQPASISCRSSQSIVHSNGNTYLEWYLQKPGQSPQLLIYKVSNRFSGVPDRFSGSGSGTDFTLKISRVEAEDVGVYYCFQGSHAPLTFGQGTKLEIK", "values": [{"measurement": "koff", "setting": "[1]; parent: est. 5.9e-3 s-1", "value": 0.00036, "unit": "s⁻¹"}]}
